Reference: US20210364527A1

Molecular target: FA peptide (N-terminal phenylalanine, penultimate alanine; rest of sequence not given)
Experiment: fluorescence polarization

Binder | Kd [nM]
PS611 (Bis-atClpS2-V1, Linker 3) (designed binder) MSDSPVDLKPKPKVKPKLERPKLYKVMLLNDDYTPMSFVTVVLKAVFRMSEDTGRRVMMTAHRFGSAVVVVCERDIAETKAKEATDLGKEAGFPLMFTTEPEEGSAGSAAGSGEFGSAGSAAGSGEFGSAGSAAGSGEFMSDSPVDLKPKPKVKPKLERPKLYKVMLLNDDYTPMSFVTVVLKAVFRMSEDTGRRVMMTAHRFGSAVVVVCERDIAETKAKEATDLGKEAGFPLMFTTEPEEGHHHHHHHHHHGGGSGGGSGGGSGLNDFFEAQKIEWHEGGGSGGGSGGGSGLNDFFEAQKIEWHE | 137
PS609 (Bis-atClpS2-V1, Linker 1) (designed binder) MSDSPVDLKPKPKVKPKLERPKLYKVMLLNDDYTPMSFVTVVLKAVFRMSEDTGRRVMMTAHRFGSAVVVVCERDIAETKAKEATDLGKEAGFPLMFTTEPEEGGGSGGGSGGGSGMSDSPVDLKPKPKVKPKLERPKLYKVMLLNDDYTPMSFVTVVLKAVFRMSEDTGRRVMMTAHRFGSAVVVVCERDIAETKAKEATDLGKEAGFPLMFTTEPEEGHHHHHHHHHHGGGSGGGSGGGSGLNDFFEAQKIEWHEGGGSGGGSGGGSGLNDFFEAQKIEWHE | 221
